In US20030165919A1, “Method for the analysis of exogenic and endogenic cell activiation based on measuring the aggregation of receptors” (priority 2000, published 2003):
Each block holds one compound with its values, some of them ahead of it.

Assays:
Assay type in all cases: cell-based
[1] = target: T1, CD32/CD14 (Uchm1) (Homo sapiens, UniProt P08571); experiment: FRET co-assembly of CD32 with CD14 on monocytes; conditions: LPS 4 nM, ceramide 40 nM, LTA 1 μg/ml, HSP70 7 nM; mean ± SD of 10 experiments; >5% = positive transfer
T1 construct: endogenous in cells; host or cells: human monocytes in whole blood
T1 sequence (P08571 20-345 limits assumed): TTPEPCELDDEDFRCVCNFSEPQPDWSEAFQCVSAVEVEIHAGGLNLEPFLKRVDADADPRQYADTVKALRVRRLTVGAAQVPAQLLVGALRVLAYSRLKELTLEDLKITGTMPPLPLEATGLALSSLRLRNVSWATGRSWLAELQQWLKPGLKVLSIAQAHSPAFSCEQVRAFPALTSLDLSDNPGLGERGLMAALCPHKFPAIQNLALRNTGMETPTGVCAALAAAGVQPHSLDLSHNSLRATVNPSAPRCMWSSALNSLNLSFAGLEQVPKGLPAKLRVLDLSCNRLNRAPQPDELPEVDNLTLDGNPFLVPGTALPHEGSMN
Procedure: (§1) Aliquots […] of whole blood were incubated with the following stimulatory compounds at 37° C. for 15 minutes: LPS of Salmonella minnesota (0.1-10 nM, Mw 10 kDa), ceramide (primarily stearic acid and nervonic acid) and sulfogalactosyl ceramide (SG-cer, […]), both of which tested LPS free in the LAL assay (Cer, 1 nM-5.5 mM), lysophosphatidyl choline (lyso-PC, 10 mM), phorbol-12-myristate-13-acetate (PMA, 1 mM), N-formyl-L-methionyl-L-leucyl-L-phenyl alamine (fMLP, 1 mM), PE, PC, PI and PS liposomes (10 mm) which had been prepared as described above. All reagents were obtained from Sigma. In addition, the cells were stimulated with HPS70 (7 nM), dHSP70 (7 nM) and SG-cer+dHSP70 (40 nM+7 nM). After incubation, the cells were washed with cold PBS containing 0.1% of NaN3. The synthetic LPS antagonist lipid IVa (“compound-406”, 1-400 ng/ml) and lipid A derived from E. coli (1-100 ng/ml) were made available by courtesy of Dr. S. Kusumoto. The cells were pre-incubated with the LPS antagonist at 37° C. for 15 minutes and then stimulated with LPS at the same temperature (without washing).
(§2) Whole blood cells which had been stimulated or washed ex vivo […] were incubated on ice for 15 minutes with saturation concentrations of monoclonal fluorochrom-conjugated or biotinylated antibodies. The monoclonal antibodies CD11a (clone 25.3.1), CD16a (clone 3G8). […]

[2] = target: T2, CD18(7E4)/CD14 (×8) (Homo sapiens, UniProt P08571); experiment: FRET co-assembly of CD18 with CD14 on monocytes; conditions: LPS 4 nM, ceramide 40 nM, LTA 1 μg/ml, HSP70 7 nM; mean ± SD of 10 experiments; >5% = positive transfer
T2 construct: endogenous in cells; host or cells: human monocytes in whole blood
T2 sequence (P08571 20-345 limits assumed): T1 sequence (P08571 20-345 limits assumed)
Procedure: as §1, §2

[3] = target: T3, CD36/CD14 (×8) (Homo sapiens, UniProt P08571); experiment: FRET co-assembly of CD36 with CD14 on monocytes; conditions: LPS 4 nM, ceramide 40 nM, LTA 1 μg/ml, HSP70 7 nM; mean ± SD of 10 experiments; >5% = positive transfer
T3 construct: endogenous in cells; host or cells: human monocytes in whole blood
T3 sequence (P08571 20-345 limits assumed): T1 sequence (P08571 20-345 limits assumed)
Procedure: as §1, §2

[4] = target: T4, CD64/CD14 (Uchm1) (Homo sapiens, UniProt P08571); experiment: FRET co-assembly of CD64 with CD14 on monocytes; conditions: LPS 4 nM, ceramide 40 nM, LTA 1 μg/ml, HSP70 7 nM; mean ± SD of 10 experiments; >5% = positive transfer
T4 construct: endogenous in cells; host or cells: human monocytes in whole blood
T4 sequence (P08571 20-345 limits assumed): T1 sequence (P08571 20-345 limits assumed)
Procedure: as §1, §2

[5] = target: T5, TLR-4/CD14 (×8) (Homo sapiens, UniProt P08571); experiment: FRET co-assembly of TLR-4 with CD14 on monocytes; conditions: LPS 4 nM, ceramide 40 nM, LTA 1 μg/ml, HSP70 7 nM; mean ± SD of 10 experiments; >5% = positive transfer
T5 construct: endogenous in cells; host or cells: human monocytes in whole blood
T5 sequence (P08571 20-345 limits assumed): T1 sequence (P08571 20-345 limits assumed)
Procedure: as §1, §2

[6] = target: T6, CD55/CD14 (Uchm1) (Homo sapiens, UniProt P08571); experiment: FRET co-assembly of CD55 with CD14 on monocytes; conditions: LPS 4 nM, ceramide 40 nM, LTA 1 μg/ml, HSP70 7 nM; mean ± SD of 10 experiments; >5% = positive transfer
T6 construct: endogenous in cells; host or cells: human monocytes in whole blood
T6 sequence (P08571 20-345 limits assumed): T1 sequence (P08571 20-345 limits assumed)
Procedure: as §1, §2

[7] = target: T7, CD81/CD14 (×8) (Homo sapiens, UniProt P08571); experiment: FRET co-assembly of CD81 with CD14 on monocytes; conditions: LPS 4 nM, ceramide 40 nM, LTA 1 μg/ml, HSP70 7 nM, mean ± SD of 10 experiments
T7 construct: endogenous in cells; host or cells: human monocytes in whole blood (donors; also sepsis and CAD patients)
T7 sequence (P08571 20-345 limits assumed): T1 sequence (P08571 20-345 limits assumed)
Procedure: as §1
Whole blood cells which had been stimulated or washed ex vivo […] were incubated on ice for 15 minutes with saturation concentrations of monoclonal fluorochrom-conjugated or biotinylated antibodies. The monoclonal antibodies CD11a (clone 25.3.1), CD16a (clone 3G8). CD18 (clone 7E4), CD14 (clone RMO52), CD33 (clone My9-RD1). CD81 (clone Js64) were obtained as R-phyco-erythrine (R-PE) conjugates and CD25 (clone B1.49.9) in biotinylated form from Coulter/Immunotech (Krefeld, Germany). CD11b (clone d12), CD11c (clone S-HCL-3), CD36 (clone CB38), CD47 (clone B6H12), CD81 (clone JS-81) and (Cd55 (clone IA10) in biotinylated form and Streptavidin-R-PE were purchased from Becton/Dickinson/Pharningen (Heidelberg, Germany) CD18 (clone IB4) in biontinylated form and CD40 (clone EA-5) as R-PE conjugate were obtained from Alexis (Grünberg, Germany) and CD14 (clones ×8 and Uchml) and CD3 (clone Cris-7) in biotinylated form and Streptavidin-Cy5 (Sa-Cy5) from Dianova (Hamburg, Germany), CD32 (clone C1KM5) and CD64 (clone 10.1) were obtained as R-PE conjugates from Caltag (Burlingame, U.S.A.) and CD91 (clone 8G1) in biotinylated form from Proen (Heidelberg, Germany). A monoclonal anti-TLRA antibody (clone HTA125) was kindly provided by Dr. Kensuke. Since no energy transfer between the antibodies directed against the CD14/CD11a and CD14/CD11c pairs was detectable either on resting or on stimulated cells, these antibody combinations were not characterised further. […]

[8] = target: T8, CD11b and CD14 (Homo sapiens, UniProt P08571); experiment: FRET flow cytometry: co-assembly of CD11b and CD14 on monocytes; conditions: human monocytes in whole blood, stimulation with the substance alone, 37° C. 15 minutes
T8 construct: endogenous in cells; host or cells: human monocytes in heparinised whole blood (healthy donors and patients)
T8 sequence (P08571 20-345 limits assumed): T1 sequence (P08571 20-345 limits assumed)
Procedure: as §1
Whole blood cells which had been stimulated or washed ex vivo […] were incubated on ice for 15 minutes with saturation concentrations of monoclonal fluorochrom-conjugated or biotinylated antibodies. The monoclonal antibodies CD11a (clone 25.3.1), CD16a (clone 3G8). CD18 (clone 7E4), CD14 (clone RMO52), CD33 (clone My9-RD1). CD81 (clone Js64) were obtained as R-phyco-erythrine (R-PE) conjugates and CD25 (clone B1.49.9) in biotinylated form from Coulter/Immunotech (Krefeld, Germany). CD11b (clone d12), CD11c (clone S-HCL-3), CD36 (clone CB38), CD47 (clone B6H12), CD81 (clone JS-81) and (Cd55 (clone IA10) in biotinylated form and Streptavidin-R-PE were purchased from Becton/Dickinson/Pharningen (Heidelberg, Germany) CD18 (clone IB4) in biontinylated form and CD40 (clone EA-5) as R-PE conjugate were obtained from Alexis (Grünberg, Germany) and CD14 (clones ×8 and Uchml) and CD3 (clone Cris-7) in biotinylated form and Streptavidin-Cy5 (Sa-Cy5) from Dianova (Hamburg, Germany), CD32 (clone C1KM5) and CD64 (clone 10.1) were obtained as R-PE conjugates from Caltag (Burlingame, U.S.A.) and CD91 (clone 8G1) in biotinylated form from Proen (Heidelberg, Germany). A monoclonal anti-TLRA antibody (clone HTA125) was kindly provided by Dr. Kensuke. Since no energy transfer between the antibodies directed against the CD14/CD11a and CD14/CD11c pairs was detectable either on resting or on stimulated cells, these antibody combinations were not characterised further.
Lysis of erythrocytes and washing were carried out as described (Rothe et al., Thromb. Vasc. Biol. 16 (1996), 1437-1447). After the last washing step, the samples were divided and part of each sample incubated with a saturating amount of SA-Cy5 on ice for 15 minutes and washed before measuring.
For energy transfer experiments, […] aliquots of whole blood were treated with cholesterol/methyl cyclodextrine (C/C) (100 mg/ml/4.6 mg/ml) or 2-hydroxypropyl-β-cyclodextrine (0.15 mg/ml) at 37° C. for 30 minutes and then stimulated further with LPS (4 nM) or ceramide (40 nM) as described above. The energy transfer between CD14 and CD11b was measured.
A “FACSCalibur” flow cytometer (Becton Dickinson) equipped with an air-cooled 15 mW argon laser (excitation wavelength 488 nm), a diode laser (excitation wavelength […]) and standard filters [channel 1 (FITC): 530/30 nm band pass filter; channel 2 (R-PE being used as donor dye); 585/47 nm band pass filter; channel 3 (PerCP): pass having a length of >670 nm; and channel 4 (Cy5being used as recipient dye): 661/16 nm bad pass filter] was used. The Cellquest software (Becton Dickinson) was used for the measurements. […] Measurement was conducted without compensation. 50,000 leukocytes were required in the “list” modus, forward scattering (FSC) being used as a trigger signal. […]

[9] = target: T9, receptor cluster comprising CD14 (Homo sapiens, UniProt P08571); experiment: FRET with a series of antibody pairs: receptor cluster comprising CD14 on monocytes; conditions: stimulation of the cells as control
T9 construct: endogenous in cells; host or cells: human monocytes in whole blood
T9 sequence (P08571 20-345 limits assumed): T1 sequence (P08571 20-345 limits assumed)
Procedure: as §1, §2

energy transfer CD32/CD14 (Uchm1) [1]: 5.3 ± 2.1%
energy transfer CD18(7E4)/CD14 (×8) [2]: 6.0 ± 2.1 %
energy transfer CD36/CD14 (×8) [3]: 8.2 ± 1.8 %
energy transfer CD64/CD14 (Uchm1) [4]: 10.1 ± 1.5%
energy transfer TLR-4/CD14 (×8) [5]: 5.4 ± 0.6%
energy transfer CD55/CD14 (Uchm1) [6]: 6.0 ± 0.5%
energy transfer CD81 (JS-81)/CD14 (×8) ([7]; CD81 clone JS-81): 1.0 ± 0.1%
energy transfer CD81 (Js64)/CD14 (×8) ([7]; CD81 clone Js64): 3.8 ± 2.5%
co-assembly of CD11b and CD14 (energy transfer between monoclonal antibodies) [8]: induces clustering of CD11b and CD14
Compound: HSP70: Heat shock protein 70 obtained from Stressgen

Compound: sulfogalactosyl ceramide [SG-cer]
co-assembly of CD11b and CD14 (energy transfer between monoclonal antibodies) [8]: Only lipoteichoic acid, PE and PI induced co-assembly

Compound: CSCC[C@H](NC=O)C(=O)N[C@@H](CC(C)C)C(=O)N[C@@H](Cc1ccccc1)C(=O)O [fMLP, N-formyl-L-methionyl-L-leucyl-L-phenyl alamine]
energy transfer between any of the antibody pairs [9]: did not result in any significant energy transfer
co-assembly of CD11b and CD14 (energy transfer between monoclonal antibodies) [8]: neither fMLP or PMA showed any effect

Compound: phosphatidyl inositol [PI]
co-assembly of CD11b and CD14 (energy transfer between monoclonal antibodies) [8]: induced co-assembly between CD11b and CD14

co-assembly of CD11b and CD14 (energy transfer between monoclonal antibodies) [8]: does not induce any receptor complex
Compound: dHSP70: HSP70 delipidated in ethanol/diethyl ether

Compound: lipid A
co-assembly of CD11b and CD14 (energy transfer between monoclonal antibodies) [8]: induced the co-assembly of CD11b and CD14

Compound: phosphatidyl choline [PC]
co-assembly of CD11b and CD14 (energy transfer between monoclonal antibodies) [8]: Only lipoteichoic acid, PE and PI induced co-assembly
